Laboratory results published in the supplement of paper PMC6757056.
± gives the standard deviation of the averaged measurements.

B1: library; a variant is named by its letters at N, in order (parent)
chain: GCUGUCACCGGUGUAUUACCCUAGUGGUCGACCGGUCUGAUGAGUCUNNNNNNAGACGAAACAGC

Key:
hypoxanthine [1] = variants of: B1; assay: normalized RNA/DNA level with ligand (relative to sTRSVctl = 100) (log10 (% of sTRSVctl)); ligand: hypoxanthine (xanthine aptamer); higher = less ribozyme self-cleavage, higher mRNA level; conditions: ligand concentration (+) RNA-Seq: 5 mM, HEK293T, reporter: mCherry (pCS4076), ligand present: yes
Outline: (§1)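 RNA level was computed as RNA reads over DNA reads divided by a spiked-in non-cleaving sequence or by the top sequences, then scaled and log-transformed. Scaling was ×100 with log10, the top group was 25 sequences, and the threshold was ≥100 DNA reads. The reads came from HEK293T cells transfected at 4 µg per 6-well well with ribozyme switch library plasmids (mCherry, or eGFP in some ligand experiments). Total RNA was extracted with EDTA 72 h after transfection, with any ligand added 1 h before it.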

hypoxanthine [2] = variants of: B1; assay: normalized RNA/DNA level without ligand (relative to sTRSVctl = 100) (log10 (% of sTRSVctl)); ligand: hypoxanthine (xanthine aptamer); higher = less ribozyme self-cleavage, higher mRNA level; conditions: HEK293T, reporter: mCherry (pCS4076), ligand present: no
Outline: as §1

## GUGAUC
Hypoxanthine [1]
  normalized RNA/DNA level with ligand (log10): 1.93 ± 0.036
Hypoxanthine [2]
  normalized RNA/DNA level without ligand (log10): 1.54 ± 0.13

## UUGAUC
Hypoxanthine [1]
  normalized RNA/DNA level with ligand (log10): 1.952 ± 0.0039
Hypoxanthine [2]
  normalized RNA/DNA level without ligand (log10): 2.02 ± 0.035

## CUGAUG
Hypoxanthine [1]
  normalized RNA/DNA level with ligand (log10): 1.936 ± 0.0068
Hypoxanthine [2]
  normalized RNA/DNA level without ligand (log10): 1.646 ± 0.0062

## UUGAUG
Hypoxanthine [1]
  normalized RNA/DNA level with ligand (log10): 1.94 ± 0.045
Hypoxanthine [2]
  normalized RNA/DNA level without ligand (log10): 1.8 ± 0.029

## AUGAUU
Hypoxanthine [1]
  normalized RNA/DNA level with ligand (log10): 1.92 ± 0.036
Hypoxanthine [2]
  normalized RNA/DNA level without ligand (log10): 1.709 ± 0.003

## CUGAUU
Hypoxanthine [1]
  normalized RNA/DNA level with ligand (log10): 1.94 ± 0.096
Hypoxanthine [2]
  normalized RNA/DNA level without ligand (log10): 1.87 ± 0.031

## GUGAUU
Hypoxanthine [1]
  normalized RNA/DNA level with ligand (log10): 1.92 ± 0.0091
Hypoxanthine [2]
  normalized RNA/DNA level without ligand (log10): 1.847 ± 0.0028

## UUGAUU
Hypoxanthine [1]
  normalized RNA/DNA level with ligand (log10): 1.98 ± 0.03
Hypoxanthine [2]
  normalized RNA/DNA level without ligand (log10): 1.905 ± 0.011

## CUGCAA
Hypoxanthine [1]
  normalized RNA/DNA level with ligand (log10): 1.933 ± 0.0062
Hypoxanthine [2]
  normalized RNA/DNA level without ligand (log10): 1.773 ± 0.015

## UUGCAA
Hypoxanthine [1]
  normalized RNA/DNA level with ligand (log10): 1.92 ± 0.03
Hypoxanthine [2]
  normalized RNA/DNA level without ligand (log10): 1.79 ± 0.048

## AUGCAC
Hypoxanthine [1]
  normalized RNA/DNA level with ligand (log10): 1.91 ± 0.12
Hypoxanthine [2]
  normalized RNA/DNA level without ligand (log10): 1.74 ± 0.034

## CUGCAC
Hypoxanthine [1]
  normalized RNA/DNA level with ligand (log10): 1.94 ± 0.057
Hypoxanthine [2]
  normalized RNA/DNA level without ligand (log10): 1.869 ± 0.018

## UUGCAC
Hypoxanthine [1]
  normalized RNA/DNA level with ligand (log10): 1.96 ± 0.051
Hypoxanthine [2]
  normalized RNA/DNA level without ligand (log10): 1.9 ± 0.038

## UUGCAG
Hypoxanthine [1]
  normalized RNA/DNA level with ligand (log10): 1.915 ± 0.017
Hypoxanthine [2]
  normalized RNA/DNA level without ligand (log10): 1.79 ± 0.099

## AUGCAU
Hypoxanthine [1]
  normalized RNA/DNA level with ligand (log10): 1.87 ± 0.032
Hypoxanthine [2]
  normalized RNA/DNA level without ligand (log10): 1.76 ± 0.019

## CUGCAU
Hypoxanthine [1]
  normalized RNA/DNA level with ligand (log10): 1.94 ± 0.043
Hypoxanthine [2]
  normalized RNA/DNA level without ligand (log10): 1.8 ± 0.074

## UUGCAU
Hypoxanthine [1]
  normalized RNA/DNA level with ligand (log10): 1.98 ± 0.024
Hypoxanthine [2]
  normalized RNA/DNA level without ligand (log10): 1.862 ± 0.004

## CUGCCA
Hypoxanthine [1]
  normalized RNA/DNA level with ligand (log10): 2.03 ± 0.043
Hypoxanthine [2]
  normalized RNA/DNA level without ligand (log10): 1.886 ± 0.011

## GUGCCA
Hypoxanthine [1]
  normalized RNA/DNA level with ligand (log10): 1.93 ± 0.021
Hypoxanthine [2]
  normalized RNA/DNA level without ligand (log10): 1.81 ± 0.035

## UUGCCA
Hypoxanthine [1]
  normalized RNA/DNA level with ligand (log10): 1.95 ± 0.017
Hypoxanthine [2]
  normalized RNA/DNA level without ligand (log10): 1.94 ± 0.028

## AUGCCC
Hypoxanthine [1]
  normalized RNA/DNA level with ligand (log10): 1.97 ± 0.062
Hypoxanthine [2]
  normalized RNA/DNA level without ligand (log10): 1.87 ± 0.048

## CUGCCC
Hypoxanthine [1]
  normalized RNA/DNA level with ligand (log10): 1.99 ± 0.039
Hypoxanthine [2]
  normalized RNA/DNA level without ligand (log10): 1.971 ± 0.0093

## GUGCCC
Hypoxanthine [1]
  normalized RNA/DNA level with ligand (log10): 1.93 ± 0.027
Hypoxanthine [2]
  normalized RNA/DNA level without ligand (log10): 1.82 ± 0.049

## UUGCCC
Hypoxanthine [1]
  normalized RNA/DNA level with ligand (log10): 1.99 ± 0.025
Hypoxanthine [2]
  normalized RNA/DNA level without ligand (log10): 1.997 ± 0.0042

## AUGCCG
Hypoxanthine [1]
  normalized RNA/DNA level with ligand (log10): 1.837 ± 0.01
Hypoxanthine [2]
  normalized RNA/DNA level without ligand (log10): 1.49 ± 0.089

## CUGCCG
Hypoxanthine [1]
  normalized RNA/DNA level with ligand (log10): 1.96 ± 0.082
Hypoxanthine [2]
  normalized RNA/DNA level without ligand (log10): 1.8 ± 0.026

## AUGCCU
Hypoxanthine [1]
  normalized RNA/DNA level with ligand (log10): 1.958 ± 0.0056
Hypoxanthine [2]
  normalized RNA/DNA level without ligand (log10): 1.818 ± 0.0027

## CUGCCU
Hypoxanthine [1]
  normalized RNA/DNA level with ligand (log10): 1.95 ± 0.097
Hypoxanthine [2]
  normalized RNA/DNA level without ligand (log10): 1.92 ± 0.036

## GUGCCU
Hypoxanthine [1]
  normalized RNA/DNA level with ligand (log10): 1.98 ± 0.042
Hypoxanthine [2]
  normalized RNA/DNA level without ligand (log10): 1.891 ± 0.0069

## UUGCCU
Hypoxanthine [1]
  normalized RNA/DNA level with ligand (log10): 2.007 ± 0.018
Hypoxanthine [2]
  normalized RNA/DNA level without ligand (log10): 1.99 ± 0.057

## GUGCGA
Hypoxanthine [1]
  normalized RNA/DNA level with ligand (log10): 1.918 ± 0.0038
Hypoxanthine [2]
  normalized RNA/DNA level without ligand (log10): 1.58 ± 0.018

## UUGCGA
Hypoxanthine [1]
  normalized RNA/DNA level with ligand (log10): 1.994 ± 0.015
Hypoxanthine [2]
  normalized RNA/DNA level without ligand (log10): 1.88 ± 0.027

## AUGCGC
Hypoxanthine [1]
  normalized RNA/DNA level with ligand (log10): 1.93 ± 0.051
Hypoxanthine [2]
  normalized RNA/DNA level without ligand (log10): 1.73 ± 0.031

## GUGCGC
Hypoxanthine [1]
  normalized RNA/DNA level with ligand (log10): 1.9 ± 0.023
Hypoxanthine [2]
  normalized RNA/DNA level without ligand (log10): 1.74 ± 0.098

## UUGCGC
Hypoxanthine [1]
  normalized RNA/DNA level with ligand (log10): 1.94 ± 0.027
Hypoxanthine [2]
  normalized RNA/DNA level without ligand (log10): 1.91 ± 0.02

## CUGCGG
Hypoxanthine [1]
  normalized RNA/DNA level with ligand (log10): 1.96 ± 0.1
Hypoxanthine [2]
  normalized RNA/DNA level without ligand (log10): 1.902 ± 0.0065

## AUGCGU
Hypoxanthine [1]
  normalized RNA/DNA level with ligand (log10): 1.94 ± 0.025
Hypoxanthine [2]
  normalized RNA/DNA level without ligand (log10): 1.819 ± 0.016

## CUGCGU
Hypoxanthine [1]
  normalized RNA/DNA level with ligand (log10): 1.954 ± 0.013
Hypoxanthine [2]
  normalized RNA/DNA level without ligand (log10): 1.93 ± 0.021

## UUGCGU
Hypoxanthine [1]
  normalized RNA/DNA level with ligand (log10): 1.97 ± 0.024
Hypoxanthine [2]
  normalized RNA/DNA level without ligand (log10): 1.82 ± 0.067

## CUGCUA
Hypoxanthine [1]
  normalized RNA/DNA level with ligand (log10): 1.95 ± 0.052
Hypoxanthine [2]
  normalized RNA/DNA level without ligand (log10): 1.77 ± 0.043

## GUGCUA
Hypoxanthine [1]
  normalized RNA/DNA level with ligand (log10): 1.93 ± 0.017
Hypoxanthine [2]
  normalized RNA/DNA level without ligand (log10): 1.75 ± 0.093

## UUGCUA
Hypoxanthine [1]
  normalized RNA/DNA level with ligand (log10): 1.95 ± 0.045
Hypoxanthine [2]
  normalized RNA/DNA level without ligand (log10): 1.897 ± 0.0028

## AUGCUC
Hypoxanthine [1]
  normalized RNA/DNA level with ligand (log10): 2.008 ± 0.011
Hypoxanthine [2]
  normalized RNA/DNA level without ligand (log10): 1.976 ± 0.013

## CUGCUC
Hypoxanthine [1]
  normalized RNA/DNA level with ligand (log10): 1.96 ± 0.063
Hypoxanthine [2]
  normalized RNA/DNA level without ligand (log10): 2.01 ± 0.0072

## GUGCUC
Hypoxanthine [1]
  normalized RNA/DNA level with ligand (log10): 1.909 ± 0.011
Hypoxanthine [2]
  normalized RNA/DNA level without ligand (log10): 1.85 ± 0.034

## UUGCUC
Hypoxanthine [1]
  normalized RNA/DNA level with ligand (log10): 2.061 ± 0.0057
Hypoxanthine [2]
  normalized RNA/DNA level without ligand (log10): 1.9913 ± 0.0008

## AUGCUG
Hypoxanthine [1]
  normalized RNA/DNA level with ligand (log10): 1.898 ± 0.0024
Hypoxanthine [2]
  normalized RNA/DNA level without ligand (log10): 1.61 ± 0.048

## CUGCUG
Hypoxanthine [1]
  normalized RNA/DNA level with ligand (log10): 1.92 ± 0.094
Hypoxanthine [2]
  normalized RNA/DNA level without ligand (log10): 1.815 ± 0.0021

## UUGCUG
Hypoxanthine [1]
  normalized RNA/DNA level with ligand (log10): 2.009 ± 0.012
Hypoxanthine [2]
  normalized RNA/DNA level without ligand (log10): 1.94 ± 0.028

## AUGCUU
Hypoxanthine [1]
  normalized RNA/DNA level with ligand (log10): 1.93 ± 0.088
Hypoxanthine [2]
  normalized RNA/DNA level without ligand (log10): 1.861 ± 0.018

## CUGCUU
Hypoxanthine [1]
  normalized RNA/DNA level with ligand (log10): 1.962 ± 0.011
Hypoxanthine [2]
  normalized RNA/DNA level without ligand (log10): 1.9272 ± 0.0008

## GUGCUU
Hypoxanthine [1]
  normalized RNA/DNA level with ligand (log10): 1.96 ± 0.027
Hypoxanthine [2]
  normalized RNA/DNA level without ligand (log10): 1.89 ± 0.019

## CUGGAA
Hypoxanthine [1]
  normalized RNA/DNA level with ligand (log10): 1.94 ± 0.033
Hypoxanthine [2]
  normalized RNA/DNA level without ligand (log10): 1.771 ± 0.013

## UUGGAA
Hypoxanthine [1]
  normalized RNA/DNA level with ligand (log10): 1.942 ± 0.0068
Hypoxanthine [2]
  normalized RNA/DNA level without ligand (log10): 1.771 ± 0.0035

## CUGGAC
Hypoxanthine [1]
  normalized RNA/DNA level with ligand (log10): 1.97 ± 0.03
Hypoxanthine [2]
  normalized RNA/DNA level without ligand (log10): 1.87 ± 0.03

## GUGGAC
Hypoxanthine [1]
  normalized RNA/DNA level with ligand (log10): 1.889 ± 0.011
Hypoxanthine [2]
  normalized RNA/DNA level without ligand (log10): 1.58 ± 0.068

## UUGGAC
Hypoxanthine [1]
  normalized RNA/DNA level with ligand (log10): 1.95 ± 0.02
Hypoxanthine [2]
  normalized RNA/DNA level without ligand (log10): 1.92 ± 0.043

## CUGGAG
Hypoxanthine [1]
  normalized RNA/DNA level with ligand (log10): 1.86 ± 0.019
Hypoxanthine [2]
  normalized RNA/DNA level without ligand (log10): 1.62 ± 0.037
